Data published in the supplement of paper PMC7877785.
± gives the uncertainty stated by the source.

Assay: self-splicing fitness, log relative to wild type (ln ratio); higher = more splicing; Tetrahymena group I intron in knt gene, E. coli kanamycin selection, DiMSum; sequences stand for … in CUCUCU…GGAGGGAAAAGUUAUCAGGCAUGCACCUGGUAGCUAGUCUUUAAACCAAUAGAUUGCAUCGGUUUAAAAGGCAAGACCGUCAAAUUGCGGGAAAGGGGUCAACAGCCGUUCAGUACCAAGUCUCAGGGGAAACUUUGAGAUGGCCUUGCAAAGGGUAUGGUAAUAAGCUGACGGACAUGGUCCUAACCACGCAGCCAAGUCCUAAGUCAACAGAUCUUCUGUUGAUAUGGAUGCAGUUCACAGACUAAAUGUCGGUCGGGGAAGAUGUAUUCUUCUCAUAAGAUAUAGUCGGACCUCUCCUUAAUGGGAGCUAGCGGAUGAAGUGAUGCAACACUGGAGCCGCUGGGAACUAAUUUGUAUGCGAAAGUAUAUUGAUUAGUUUUGGAGUACUCGUGGUCG
In short: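 Six replicate transformations of E. coli BL21(DE3) with a pET-22b(+) library were grown overnight at 37°C or 30°C. The library randomised all eight P1ex-region intron nucleotides, the intron lying in the knt kanamycin-resistance gene, and plates were LB agar with or without 25 μg/mL kanamycin plus 100 μg/mL carbenicillin, 50 μM IPTG and 0.2% rhamnose. Pooled colonies were amplicon-sequenced on an Illumina HiSeq 2500, and fitness is the DiMSum error-weighted combination of wild-type-normalised replicate fold changes, kanamycin versus none.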

Sequence | self-splicing fitness (ln) (30 °C) | self-splicing fitness (ln) (37 °C)
CCCCAGCAAUAUUACGGCCA | -3.1 ± 0.2 | -2.16 ± 0.2
UUUGAGCAAUAUUACGAACU | -3.36 ± 0.28 | -2.77 ± 0.31
UCUCAGCAAUAUUACGCGGU | -2.89 ± 0.26 | -2.3 ± 0.28
CAGAAGCAAUAUUACGAUCA | -2.19 ± 0.14 | -1.84 ± 0.17
GUCUAGCAAUAUUACGAUAA | -1.09 ± 0.22 | 0.55 ± 0.23
GCGGAGCAAUAUUACGACUC | -2.06 ± 0.25 | -0.372 ± 0.34
GACAAGCAAUAUUACGGGGU | -2.96 ± 0.12 | -3.16 ± 0.15
UGGAAGCAAUAUUACGAUAU | -2.59 ± 0.18 | -2.39 ± 0.21
GAUUAGCAAUAUUACGCCUA | -0.405 ± 0.092 | 0.169 ± 0.095
AGUUAGCAAUAUUACGUUGC | -4.72 ± 0.41 | -2.21 ± 0.21
UUUAAGCAAUAUUACGGGGC | -2.77 ± 0.3 | -3.55 ± 0.3
CGUGAGCAAUAUUACGCGCC | -2.85 ± 0.36 | -1.95 ± 0.28
CGCUAGCAAUAUUACGUUAU | -4.99 ± 0.32 | -3.36 ± 0.26
GCGCAGCAAUAUUACGAAAG | -2.66 ± 0.16 | -1.68 ± 0.14
AAAUAGCAAUAUUACGCGAC | -2.2 ± 0.17 | -1.03 ± 0.2
AUGAAGCAAUAUUACGGGAG | -1.71 ± 0.098 | -1.16 ± 0.11
CCAAAGCAAUAUUACGGCCA | -2.38 ± 0.24 | -2.76 ± 0.33
GAUUAGCAAUAUUACGGUUC | -3.38 ± 0.18 | -1.96 ± 0.23
CCAUAGCAAUAUUACGUGGA | -2.2 ± 0.14 | -2.16 ± 0.18
GGGUAGCAAUAUUACGCUCG | -0.269 ± 0.13 | -0.258 ± 0.16
UGAUAGCAAUAUUACGGGCG | -0.568 ± 0.099 | 0.157 ± 0.1
AGGUAGCAAUAUUACGACUC | -0.66 ± 0.018 | -0.19 ± 0.037
CGGGAGCAAUAUUACGACAG | -1.7 ± 0.22 | -0.944 ± 0.38
UAGCAGCAAUAUUACGUGCC | -1.84 ± 0.17 | -1.2 ± 0.21

Sequence | self-splicing fitness (ln) (30 °C) | self-splicing fitness (ln) (37 °C)
GCCUAGCAAUAUUACGUGUC | -1.13 ± 0.056 | -0.843 ± 0.058
AGUUAGCAAUAUUACGAUUC | -2.04 ± 0.24 | -0.169 ± 0.26
UGAUAGCAAUAUUACGACAU | -2.587 ± 0.02 | -1.26 ± 0.035
AUGUAGCAAUAUUACGCGCA | -0.46 ± 0.16 | -0.226 ± 0.15
GCCGAGCAAUAUUACGCAUU | -2.73 ± 0.14 | -0.759 ± 0.13
AUAAAGCAAUAUUACGGUGA | -0.436 ± 0.09 | -0.422 ± 0.11
CCAUAGCAAUAUUACGGCAC |  | -1.84 ± 0.28
GUCGAGCAAUAUUACGUAUA | -3.54 ± 0.25 | -1.63 ± 0.18
UUUCAGCAAUAUUACGGGUC | -3.24 ± 0.26 | -2.14 ± 0.2
CCGGAGCAAUAUUACGCACG |  | -0.516 ± 0.21
GUCCAGCAAUAUUACGCAGA | -3.39 ± 0.4 | -1.87 ± 0.22
ACCUAGCAAUAUUACGCAUA | -2 ± 0.2 | -1.85 ± 0.16
GAGAAGCAAUAUUACGUAAU | -1.88 ± 0.1 | -0.98 ± 0.11
CCUAAGCAAUAUUACGCGGA | -2.38 ± 0.19 | -3.62 ± 0.46
ACGCAGCAAUAUUACGUUUG | -3.65 ± 0.2 | -2.69 ± 0.2
GGUGAGCAAUAUUACGAUCG | -0.341 ± 0.095 | 0.221 ± 0.13
CAUCAGCAAUAUUACGCUAC | -3.62 ± 0.27 | -3.33 ± 0.46
CGUCAGCAAUAUUACGAUGG | -1.27 ± 0.054 | -0.0354 ± 0.084
GAAGAGCAAUAUUACGCGUG | -2.43 ± 0.078 | -1.32 ± 0.085
GAAAAGCAAUAUUACGCAAC | -2.92 ± 0.16 | -0.437 ± 0.16
AAUUAGCAAUAUUACGCCCU | 0.0273 ± 0.1 | -0.313 ± 0.13
UAAAAGCAAUAUUACGGGAG | -2.66 ± 0.14 | -1.25 ± 0.11
GGCCAGCAAUAUUACGCUAU | -1.35 ± 0.054 | -1.02 ± 0.063
AUGGAGCAAUAUUACGACCG | -3.83 ± 0.37 | -1.19 ± 0.26
